The values below come from paper PMC7993378, “Inhibition of bacterial and human zinc-metalloproteases by bisphosphonate- and catechol-containing compounds” (Journal of Enzyme Inhibition and Medicinal Chemistry, 2021).

Data set [1] has as its system COc1ccc2c(CC(=O)N[C@@H](CCCNC(=N)N)C(=O)N3CCC[C@H]3C(=O)N3CCC[C@H]3C(=O)NCC(=O)N[C@@H](Cc3ccccc3)C(=O)N[C@@H](CO)C(=O)N[C@@H](C)C(=O)N[C@@H](Cc3ccccc3)C(=O)N[C@@H](CCCCNc3ccc([N+](=O)[O-])cc3[N+](=O)[O-])C(=O)O)cc(=O)oc2c1. Put plainly: purified protein, by the assay type. Conditions: other: 1% DMSO; regarded as uncertain, highest substrate concentration 10 µM; pH 7.5.

Data set [2] has the same test system. Briefly: Km determination of McaRPPGFSAFK(Dnp)-OH with TLN. Format: biochemical, Bacillus thermoproteolyticus. Conditions: other: 2% DMSO; pH 7.5. How it is done:
The estimated Km values for ALN and PLN must be regarded as uncertain since the highest substrate concentration used was 10 µM due to quenching. The obtained Km values are very similar to those previously obtained for theses enzymes without DMSO[57] or with a DMSO concentration of 5%[58]. Previously it was reported that TLN is inactivated in most organic cosolvents, but can tolerate up to 10% DMSO to enhance substrate solubility. For TLN, the Km value was also determined with a DMSO concentration of 2%.
Km values were determined for McaPLGL(Dpa)AR-NH2 with APMA-activated recombinant MMP-9 (rMMP-9(A)), trypsin-activated MMP-9 from THP-1 cells (MMP-9(T)) and MMP-14, and for McaRPPGFSAFK(Dnp)-OH with ALN, PLN and TLN. Substrate concentrations used were 1–10 µM in a total volume of 100 µL of 0.1 M Hepes pH 7.5 containing 10 mM CaCl2, 0.005% Brij-35 and 1.0% DMSO. […] Initial rate experiments were performed as described above for the determination of enzyme activity of MMP-9 during activation and the same excitation and emission wavelengths were used for both substrates.

One may read the Km as the concentration of substrate that gives half-maximal velocity. As to ALN (Staphylococcus aureus), the Km in data set [1] is recorded as 76 ± 7 µM.
In the case of TLN (Bacillus thermoproteolyticus), in data set [2], the Km came to 7 ± 1 µM.
